Source: PMC12328794 (2025)

Target: cytosolic domain of human Fis1 (Fis1_ΔTM, residues 1−123) (human, UniProt Q9Y3D6 1-123)
Test: SPR

Kd: 156 µM
B1: Bap31_CC2 D224K (domain or fragment)
chain: LDVGNAEVKLEEENRSLKADLQKLKDELASTKQKLEKAENQVLAMRKQSEGLTKEYKRLLEEHAKLQAAVDGPMDKKEE
